Experimental data: patent US6200577A, “Anti-herpesviral agents and assays therefor” (priority 1996, dated 2001)

Experiments:
gB/VP22trunc binding = target: T1, gB/VP22trunc binding (Human herpesvirus 1, UniProt P10211); assay: Far Western analysis of peptide inhibition of GST-gB binding to VP22trunc; set-up: species or system HSV-1; conditions: peptide 250 μg/ml co-incubated with GST-gB 1.2 μg/ml; FIG. 12B
T1 construct: linked residues 798 to 904 of gB to the glutathione-S-transferase (GST) protein expressed by pGex2TNMCR; made in house; host or cells: GST-gB: E. coli DH5alpha; VP22trunc: E. coli BL21(DE3)
T1 sequence (P10211 798-904): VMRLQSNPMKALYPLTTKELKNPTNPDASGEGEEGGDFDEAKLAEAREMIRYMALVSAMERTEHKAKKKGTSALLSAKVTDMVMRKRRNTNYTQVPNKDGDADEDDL
Experimental: (B) Inhibition of binding of GST-gB (final concentration 1.2 μg/ml)and each of the following peptides at a final concentration of 250 μg/ml: lane 1, no peptide; lane 2, peptide A; lane 3, peptide B; lane 4, peptide C; lane 5, peptide D; lane 6, peptide E; lane 7, peptide F; lane 8, peptide G; lane 9, peptide H; lane 10, peptide I; lane 11, peptide J. Bound GST-gB was detected with anti-GST antibody.
(§1) Following electrophoresis, proteins were electrotransferred to either Hybond or ProBlott (Applied Biosystems) membrane and the membrane was incubated in renaturation buffer (50 mM Tris-HCl, pH 8.0, 150 mM NaCl, 10% glycerol, 1 mM DTT) at 4° C. for 5-6 hours.
For membranes probed with GST-gB, blocking was performed overnight in PBSA containing 1% non-fat dried milk and 0.05% Tween 20 at 4° C. Membranes were then washed twice in renaturation buffer (10 min/wash) prior to incubation with fusion protein (final concentration 0.5 μg/ml) in renaturation buffer containing 1% BSA. Incubation was again performed overnight at 4° C. Following washing with renaturation buffer (four times, 10 minutes/wash) and a brief rinse with blocking buffer, the membrane was incubated with anti-GST antibody in PBSA, 1% non-fat dried milk, 0.05% Tween 20 and 1% BSA for 1 hour at ambient temperature. After four washes with PBSA, 0.05% Tween 20 (10 minutes/wash), bound antibody was detected with secondary antibody (goat anti-rabbit IgG, whole molecule; Sigma) conjugated to Horse Radish Peroxidase (HRP) by incubating at room temperature for 45 minutes. Following four further washes with PBSA, 0.05% Tween 20, the secondary antibody was visualised by enhanced chemiluminescence.
Similar to the studies performed with inhibition of binding of VP16 to VP22, peptides A to J, which span residues 18 to 144 of VP22trunc, were used to examine whether gB binding could also be prevented (FIG. 12B).

[1] = target: T2, VP16/VP22trunc interaction (Human herpesvirus 1, UniProt P06492); assay: Far Western analysis of peptides blocking VP16 binding to immobilised VP22trunc; set-up: species or system HSV-1; conditions: for Blocking of VP16 binding to immobilised VP22trunc (Far Western), crude peptides: strips pre-incubated with 1 mg of crude peptide, FIG. 7A; for Blocking of VP16 binding to immobilised VP22trunc (Far Western), repeat with purified peptides D and E: strips pre-incubated with 1 mg peptide, FIG. 7B
T2 construct: Plasmid pETVP16 was used to express full-length VP16 under the control of the T7 RNA polymerase promoter; made in house; host or cells: E. coli BL21(DE3)
T2 sequence (P06492 whole entry): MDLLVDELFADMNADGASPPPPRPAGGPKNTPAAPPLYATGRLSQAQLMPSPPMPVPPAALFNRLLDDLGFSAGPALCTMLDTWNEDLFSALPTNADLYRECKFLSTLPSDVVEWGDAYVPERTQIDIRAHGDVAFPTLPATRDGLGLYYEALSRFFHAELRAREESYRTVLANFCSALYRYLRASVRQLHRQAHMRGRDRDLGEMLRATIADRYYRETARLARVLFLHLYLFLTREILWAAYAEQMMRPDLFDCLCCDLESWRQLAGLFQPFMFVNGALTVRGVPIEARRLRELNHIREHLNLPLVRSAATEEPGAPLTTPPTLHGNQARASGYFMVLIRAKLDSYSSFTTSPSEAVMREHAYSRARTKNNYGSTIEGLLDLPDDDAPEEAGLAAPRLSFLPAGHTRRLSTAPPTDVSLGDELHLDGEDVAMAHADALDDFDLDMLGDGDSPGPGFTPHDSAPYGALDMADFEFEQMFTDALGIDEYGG
Experimental: FIG. 7 Far Western analysis of the ability of peptides to block the interaction between VP16 and immobilised VP22trunc. Purified VP22trunc was added to partially purified extract of VP16 and the sample run on a 12% polyacrylamide gel. Proteins were then transferred to nitrocellulose membrane and the blot was cut into strips, with each strip containing approximately 1 g of VP22trunc. In (A), strips were pre-incubated with 1 mg of each of the following peptides: lane 2, no peptide, lane 3, peptide C; lane 4, peptide D; lane 5, peptide E; lane 6, peptide F; lane 7, peptides D and E; lane 8, peptides C and F. In (B) strips were pre-incubated with 1 mg of each of the following peptides: lane 2, no peptide, lane 3, peptide C; lane 4, purified peptide D; lane 5, purified peptide E; lane 6, peptide F. 24 g of pure VP16 was then added to strips 2 to 8 in (A) and strips 2 to 6 in (B), followed by incubation with LP1 antibody (1:1000 dilution). As a control, portions of the blot were incubated with LP1 or the 9220 antibody at a dilution of 1:1000 (lane 1 for LP1 in A and B; lane 9 in A and lane 7 in B for 9220). The apparent molecular weights of VP16 (65 KDa) and the dimer (32 KDa) and monomer (16 KDa) forms of VP22trunc are shown.
as §1
For membranes probed with either VP16 or VP22trunc, blocking was performed overnight as described for Western blot analysis. Probing with epitope-tagged VP22 or VP16 was performed in 20 mM Tris-HCl, pH 8.0, 250 mM NaCl for 1.5 hours at ambient temperature. Excess probe was removed by washing 4 times (10 minutes per wash) in 20 mM Tris-HCl, pH8.0, 250 mM NaCl, followed by incubation with the appropriate antibody at a dilution of 1:1000 in TTBS/1% gelatin for 1.5-2 hours. Bound antibody was detected as described for Western blot analysis.
Based on the studies with soluble VP16 and VP22trunc presented above, only a restricted number of peptides were examined by Far Western analysis to identify those that may prevent binding of VP16. Thus, VP22trunc was added to a crude extract of bacterially expressed VP16 and the proteins were electrophoresed on a polyacrylamide gel followed by transfer to a membrane. […] Before the addition of VP16 the blot strips in lanes 3 to 8 were incubated with crude preparations of peptides C, D, E, or E' as well as mixtures of either 0 and E or C and F. When the blot strips were incubated with peptides C and F either singly or in combination, VP16 bindincg to VP22trunc was not prevented (FIG. 7A, lanes 3, 6 and 8).

Row | Sequence | Inhibition of GST-gB binding to VP22trunc (Far Western) (gB/VP22trunc binding) | Blocking of VP16 binding to immobilised VP22trunc (Far Western), crude peptides [1] | Blocking of VP16 binding to immobilised VP22trunc (Far Western), repeat with purified peptides D and E [1]
1 | CAAVGRLAAMHARMAAVQLW [Peptide E] | completely inhibited binding of gB | loss of recognition of VP22trunc | able to block binding of VP16 to VP22trunc
2 | FSTAPPNPDAPWTPRVAGFN [Peptide C] |  | not prevented | had no effect
3 | TPRVAGFNKRVFCAAVGRLA [Peptide D] | completely inhibited binding of gB | loss of recognition of VP22trunc | able to block binding of VP16 to VP22trunc
